Measured values published in patent US20250075190A1, “DE NOVO DESIGNED LUCIFERASE” (UNIVERSITY OF WASHINGTON, priority 2022, published 2025).

T1: native Renilla reniformis luciferase (RLuc) (Renilla reniformis, UniProt P27652)
T1 construct: host and tag of RLuc not clearly stated
T1 sequence (P27652 1-311): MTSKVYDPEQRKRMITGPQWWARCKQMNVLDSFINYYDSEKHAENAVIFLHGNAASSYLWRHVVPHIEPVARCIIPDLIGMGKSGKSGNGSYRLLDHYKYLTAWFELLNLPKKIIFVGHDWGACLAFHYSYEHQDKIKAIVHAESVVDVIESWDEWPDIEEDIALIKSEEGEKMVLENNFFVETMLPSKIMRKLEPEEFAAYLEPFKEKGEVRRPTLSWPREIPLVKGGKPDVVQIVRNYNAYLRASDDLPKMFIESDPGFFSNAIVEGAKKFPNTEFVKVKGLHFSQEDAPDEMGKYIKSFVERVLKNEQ


Legend:
[1] = target: T1, native Renilla reniformis luciferase (RLuc); experiment: Michaelis-Menten kinetics of native Renilla luciferase (RLuc) with CTZ; assay type: biochemical; details: substrate CTZ; Table 3
From the text: Synthetic genes and oligonucleotides were purchased from Integrated DNA Technologies or GenScript. The synthetic gene was inserted between NdeI and XhoI sites of a pET29b+ vector, containing an N-terminal hexahistidine tag followed by a TEV protease cleavage site and a C-terminal stop codon. Restriction endonucleases, Q5 PCR polymerase, and T4 ligase were purchased from NEB. Plasmid DNA, PCR products, or digested fragments were purified by Qiagen DNA purification kits. DNA sequences were analyzed by Genewiz. Coelenterazine (CTZ) was purchased from Gold Biotechnology. Diphenylterazine (DTZ), pyridyl diphenylterazine (8pyDTZ), and Furimazine (FRZ) were purchased from MedChemExpress. […] DNA and protein concentrations were determined by a NanoDrop™ small-volume 8 channel UV/vis spectrometer. […] All luminescence measurements were acquired by a Biotek Synergy Neo2T™ Multi-Mode Plate Reader. To convert relative arbitrary unit (RLU) to the number of photons, Neo2 plate reader was calibrated by determining the chemiluminescence of luminol with known quantum yield in the presence of horseradish peroxidase and hydrogen peroxide in K2CO3 aqueous solution as previously described^45. SDS PAGE and luminescence images were captured by a Bio-Rad ChemiDocT™ XRS+. Images were analyzed using the Fiji image analysis software. […]

[2] = Michaelis-Menten kinetics measurements of purified luciferases; assay type: biochemical
Experimental: For Michaelis-Menten kinetics measurements, 25 μL of serial diluted DTZ substrate in Tris pH 8.0 buffer was added into the wells of a white 96-well half-area microplate containing 25 μL of purified luciferases (final enzyme concentration: 100 nM; substrate concentration: 0.78 to 50 μM). Measurements were taken every 1 min (0.1 s integration and 10 s shaking between each interval) for a total of 20 min. Initial velocities were estimated as the average of the light intensities from the first three data points to fit the Michaelis-Menten equation. All relative arbitrary unit (RLU) per second values were converted to photon/s by the luminol-H2O2—HRP calibration method^45. Following the equation: Imax=LQY×kcat×[E], Imax is the maximal photon flux (photon s^−1), [E] is the total enzyme concentration, and V ax is the maximum photon flux per molecule (photon s^−1 molecule^−1) from the fitting of the Michaelis-Menten equation. To determine the luminescent quantum yields, 25 μL of 5 μM individual substrate in PBS was injected into 25 μL PBS containing 100 nM corresponding luciferase. DTZ was used for all LuxSit variants while CTZ was used as the substrate of native RLuc. The luminescence signals were monitored until the reactions were completed (0.1 s integration and measurements were taken every 5 s for a total of 40 min). […] To record emission spectra, 25 μL of 50 μM DTZ in PBS were injected into 25 μL of 200 nM pure luciferases and the emission spectra were collected with 0.1 s integration and 2 nm increments from 300 to 700 num. In vitro luminescence activity measurements of LuxSit-i expressing HEK293T or HeLa cells were done similarly as 15,000 intact cells or lysates were used in the assay instead of purified luciferases. To evaluate the substrate specificity, 25 μL of 50 μM substrate analogs in PBS were added to 25 μL of 200 nM indicated luciferases, and the signals were recorded over 20 min. Data were shown as the total luminescence signal over the first 10 min. We normalized the data by setting the highest emission substrate at 100%.

[3] = Luminescent quantum yield of LuxSit variants; assay type: biochemical; details: consuming 125 pmol of DTZ in PBS with 50 nM recombinant luciferase; estimated relative to reported quantum yield of RLuc; mean ± s.d., n = 3
Experimental: (§1) FIG. 10. Additional characterization of LuxSit variants. (a) Normalized emission kinetics of 15,000 intact HeLa cells expressing LuxSit-i, 100 nM purified LuxSit-i, or 100 nM purified LuxSit-f in the presence of 50 μM DTZ. The more extended emission kinetics in HeLa cells is likely due to the diffusion rate of DTZ across cell membranes. […] (c) Luminescent quantum yield was estimated from the integrated luminescence signal until completely converting 125 pmol substrates to photons in the presence of 50 nM corresponding luciferase (see Methods). All data points were plotted as the average of triplicate measurements.
For Michaelis-Menten kinetics measurements, 25 μL of serial diluted DTZ substrate in Tris pH 8.0 buffer was added into the wells of a white 96-well half-area microplate containing 25 μL of purified luciferases (final enzyme concentration: 100 nM; substrate concentration: 0.78 to 50 μM). […] The luminescence signals were monitored until the reactions were completed (0.1 s integration and measurements were taken every 5 s for a total of 40 min). […] In vitro luminescence activity measurements of LuxSit-i expressing HEK293T or HeLa cells were done similarly as 15,000 intact cells or lysates were used in the assay instead of purified luciferases. […] Data were shown as the total luminescence signal over the first 10 min. […]

[4] = Substrate specificity on coelenterazine substrate analogs; assay type: biochemical
Experimental: FIG. 4. High substrate specificity of designed luciferases allows multiplexed bioassay. (a) Chemical structures of Coelenterazine substrate analogs. (b) Activity of LuxSit-i on selected luciferin substrates. Luminescence image (top) and signal quantification (bottom) of the indicated substrate in the presence of 100 nM LuxSit-i. LuxSit-i has high specificity for the design target substrate, DTZ. (c) Heatmap visualization of the substrate specificity of LuxSit-i. Renilla luciferase (RLuc), Gaussia luciferase (GLuc), engineered NLuc from Oplophorus luciferase. […] (d) Luminescence emission spectrum of LuxSit-i/DTZ and RLuc/PP-CTZ can be spectrally resolved by 528/20 and 390/35 filters (shown in dashed bars) and only recognize the cognate substrate. (e) Schematic of the multiplex luciferase assay. […] (f-g) Luminescence signals from cells can be measured under either substrate-resolved or spectrally resolved methods by a plate reader. (f) For the substrate-resolved method, luminescence intensity was recorded without a filter after adding either PP-CTZ or DTZ. […] Luminescence signals were acquired from the lysate of 15,000 cells in CelLytic™ M reagent while CyOFP fluorescence signal was used to normalize cell numbers and transfection efficiencies. […]

[5] = Circular dichroism spectra and thermal denaturation; assay type: physicochemical; details: 220 nm, 25° C. to 95° C.
From the text: Synthetic genes and oligonucleotides were purchased from Integrated DNA Technologies or GenScript. The synthetic gene was inserted between NdeI and XhoI sites of a pET29b+ vector, containing an N-terminal hexahistidine tag followed by a TEV protease cleavage site and a C-terminal stop codon. Restriction endonucleases, Q5 PCR polymerase, and T4 ligase were purchased from NEB. Plasmid DNA, PCR products, or digested fragments were purified by Qiagen DNA purification kits. DNA sequences were analyzed by Genewiz. Coelenterazine (CTZ) was purchased from Gold Biotechnology. Diphenylterazine (DTZ), pyridyl diphenylterazine (8pyDTZ), and Furimazine (FRZ) were purchased from MedChemExpress. […] DNA and protein concentrations were determined by a NanoDrop™ small-volume 8 channel UV/vis spectrometer. […] All luminescence measurements were acquired by a Biotek Synergy Neo2T™ Multi-Mode Plate Reader. To convert relative arbitrary unit (RLU) to the number of photons, Neo2 plate reader was calibrated by determining the chemiluminescence of luminol with known quantum yield in the presence of horseradish peroxidase and hydrogen peroxide in K2CO3 aqueous solution as previously described^45. SDS PAGE and luminescence images were captured by a Bio-Rad ChemiDocT™ XRS+. Images were analyzed using the Fiji image analysis software.
Purified protein samples were prepared at 15 μM in pH 7.4 10 mM phosphate buffer. Spectra from 190 nm to 260 nm were recorded at 25° C., 50° C., 75° C., 95° C., and after cooling back to 25° C. Thermal denaturation was monitored at 220 nm from 25° C. to 95° C. […]

[6] = Luciferase activities of re-designed sequences based on LuxSit-i (Table 1); assay type: biochemical; details: LuxSit-f and re-designed sequences based on LuxSit-i (Table 1)
From the text: In another embodiment, the proteins comprise an amino acid sequence at least 30%, 35%, 40%, 45%, 50%, 55%, 60%, 65%, 70%, 75%, 80%, 85%, 90%, 91%, 92%, 93%, 94%, 95%, 96%, 97%, 98%, 99%, or 100% identical to the amino acid selected from the group consisting of SEQ ID NO:1-181, as shown in Table 1. SEQ ID NO:5-181 in Table 1 are re-designed amino acid sequences based on LuxSit-i (SEQ ID NO:2), with their luciferase activities shown.

[7] = Luminescence decay curves of LuxSit-i in various pH buffers; assay type: biochemical
Experimental: as §1

Row | Molecule | Vmax [1] [photon s^−1 molecule^−1] | photon flux (photon s^−1) greater than native Renilla reniformis luciferase (RLuc) [2] [%] | LQY (luminescent quantum yield) [3] [%] | selectivity for DTZ over bis-CTZ [4] [fold] | thermal stability (CD melting) [5] | Activity [6] | pH dependence of DTZ luminescent reaction [7] | higher photon flux over LuxSit (25 μM DTZ) | Relative emission intensity (integrated luminescence intensity over the first 20 min, normalized to LuxSit, 25 μM DTZ in Tris pH 8.0 buffer)
1 | Oc1ccc(Cc2nc3c(Cc4ccccc4)nc(-c4ccc(O)cc4)cn3c2O)cc1 [CTZ, Coelenterazine] | 0.26 |  |  |  |  |  |  |  | 
2 | LuxSit-i: LuxSit variant R60S/A96L/M110V, SEQ ID NO:2, named for high brightness (protein, VARIANT 1 optionally absent; VARIANT 118 optionally absent) MSEEQIRQFLRRFYEALDSGDADTAASLFHPGVTIHLWDGVTFTSREEFREWFERLFSTSKDAQREIKSLEVRGDTVEVHVQLHATHNGQKHTVDLTHHWHFRGNRVTEVRVHINPTG |  | 38 | 14.5 ± 1.8 | 50 | thermostable | 763.6 | pH-dependent | more than 100 fold | 153
